# Experimental data as given in paper PMC9723635.
# Columns and labels:
# [1] = tested on: RBPMS-A WT; test: UV crosslinking; details: 4 uM protein, EMSA: 50 mM HEPES pH 7.2-7.9, 15 mM MgCl2, 25% glycerol, 5 mM DTT, 45 mM KCl, 5 ug tRNA, 20 fmol RNA, 25 min at 30 C, then 5 ug heparin 5 min at 30 C
# [2] = tested on: RBPMS-A WT; test: EMSA; details: apparent Kd, Hill fit; tRNA and heparin present; EMSA: 50 mM HEPES pH 7.2-7.9, 15 mM MgCl2, 25% glycerol, 5 mM DTT, 45 mM KCl, 5 ug tRNA, 20 fmol RNA, 25 min at 30 C, then 5 ug heparin 5 min at 30 C; 4% …
# [3] = target: recombinant RBPMS-A T/A (double mutant T113A and T118A) (UniProt Q93062); test: AUC; sedimentation velocity, interference data, 40 000 rpm, 20°C, overnight; protein at 0.5 mg/ml in 20 mM HEPES, 500 mM KCl, 1 mM TCEP, pH 7.9; c(s) distributions by SEDFIT; self-association into dimers and higher-order oligomers
# [4] = target: recombinant wild-type RBPMS-A (RNA Binding Protein with Multiple Splicing, canonical isoform A) (UniProt Q93062); test: as above
# [5] = target: truncated RBPMS-A T/E (amino acids 1-122, T113E and T118E), the sample used for NMR (UniProt Q93062); test: SEC-MALS; 50 μl at ~2 mg/ml on Superdex 75 10/300 GL increase, 10 mM HEPES pH 6.8, 50 mM KCl, 0.5 ml/min; self-association (dimer)
substance,measurement,setting,value
Tpm1 UV-crosslinking RNA,binding signal (% (reference)),[1]; no nuclear extract,100
same,binding signal (% (reference)),[1]; with 20% HeLa nuclear extract,100
Tpm1 exon 3 upstream intron EMSA RNA (three tandem CAC motifs),Kd,[2],213 nM
recombinant RBPMS-A T/A (double mutant T113A and T118A) (from UniProt Q93062 2-196) (natural protein),stoichiometry N,[3],2
"recombinant wild-type RBPMS-A (RNA Binding Protein with Multiple Splicing, canonical isoform A) (from UniProt Q93062 2-196) (natural protein)",stoichiometry N,[4],2
"truncated RBPMS-A T/E (amino acids 1-122, T113E and T118E), the sample used for NMR (from UniProt Q93062 1-122) (domain or fragment)",stoichiometry N,[5],2
